{"source": "patent US10463750", "key": {"[1]": {"molecular_target": "2C TCR (transgenic T cell receptor of CD8+ 2C T cells) (mouse)", "experiment": "cell-based or functional assay"}, "[2]": {"molecular_target": "Pmel TCR (tumor-antigen gp-100 specific transgenic TCR of CD8+ Pmel T cells) (mouse)", "experiment": "cell-based or functional assay"}}, "data": [{"substance": "1B2 (an anti-clonotypic 2C TCR-specific mAb; mouse IgG1 isotype) (antibody)", "values": [{"measurement": "1B2/CD19 specific re-direction lysis of T2 cells, pre-targeted protocol, 51Cr release", "setting": "[1]", "result": "20 to 25", "unit": "%"}, {"measurement": "PKH26/67 double positive cell conjugates (2C/T2 conjugate formation)", "setting": "[1]", "result": 19.5, "unit": "%"}, {"measurement": "re-directional specific lysis window of T2 cells (1B2/CD19 minus 1B2 beads), co-culture, E:T 1:1, 51Cr release", "setting": "[1]", "result": 30, "unit": "%"}, {"measurement": "re-directional specific lysis window of T2 cells (1B2/CD19 minus 1B2 beads), co-culture, E:T 2:1, 51Cr release", "setting": "[1]", "result": 20, "unit": "%"}, {"measurement": "re-directional specific lysis window of T2 cells (1B2/CD19 minus 1B2 beads), co-culture, E:T 5:1, 51Cr release", "setting": "[1]", "result": 10, "unit": "%"}, {"measurement": "specific lysis of T2 cells, pre-targeted protocol (FIG. 4B), 51Cr release", "setting": "[1]", "result": 20, "unit": "%"}]}, {"substance": "GP 100 peptide loaded D^b-Ig dimer (from UniProt P61769 21-119) (peptide-MHC)", "values": [{"measurement": "lysis of T2 cells, pre-targeted assay, E:T 10:1, 51Cr release", "setting": "[2]", "result": "< 40", "unit": "%"}, {"measurement": "re-directional specific lysis window (Db-gp100-Ig/CD19 against Db-gp100-Ig beads)", "setting": "[2]", "result": 5, "unit": "%"}]}, {"substance": "QL9 peptide loaded L^d-Ig dimer (from UniProt P61769 21-119) (peptide-MHC)", "values": [{"measurement": "lysis of T2 cells, pre-targeted assay, E:T 10:1, 51Cr release", "setting": "[1]", "result": "< 20", "unit": "%"}, {"measurement": "re-directional lysis specific window (Ld-QL9-Ig/CD19 against Ld-QL9-Ig beads)", "setting": "[1]", "result": "< 15", "unit": "%"}]}]}
